In patent US20140072613A1 (published 2014):

T1: Ret(V804M)(h) (human, UniProt P07949 658-1114, limits assumed)
T1 sequence (looked up): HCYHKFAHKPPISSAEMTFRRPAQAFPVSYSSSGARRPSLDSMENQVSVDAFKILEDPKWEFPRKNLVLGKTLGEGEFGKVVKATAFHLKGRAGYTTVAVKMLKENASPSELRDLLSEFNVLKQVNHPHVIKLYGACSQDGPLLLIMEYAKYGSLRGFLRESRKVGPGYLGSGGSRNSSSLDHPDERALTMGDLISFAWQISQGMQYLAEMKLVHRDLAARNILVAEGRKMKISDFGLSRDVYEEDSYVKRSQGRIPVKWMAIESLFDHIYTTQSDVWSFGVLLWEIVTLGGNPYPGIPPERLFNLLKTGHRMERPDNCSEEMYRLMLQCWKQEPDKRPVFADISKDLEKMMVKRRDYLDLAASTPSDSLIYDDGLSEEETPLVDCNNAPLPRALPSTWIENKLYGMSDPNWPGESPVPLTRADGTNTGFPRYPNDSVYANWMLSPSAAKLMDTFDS

T2: EphA1(h) (human, UniProt P21709 569-976, limits assumed)
T2 sequence (looked up): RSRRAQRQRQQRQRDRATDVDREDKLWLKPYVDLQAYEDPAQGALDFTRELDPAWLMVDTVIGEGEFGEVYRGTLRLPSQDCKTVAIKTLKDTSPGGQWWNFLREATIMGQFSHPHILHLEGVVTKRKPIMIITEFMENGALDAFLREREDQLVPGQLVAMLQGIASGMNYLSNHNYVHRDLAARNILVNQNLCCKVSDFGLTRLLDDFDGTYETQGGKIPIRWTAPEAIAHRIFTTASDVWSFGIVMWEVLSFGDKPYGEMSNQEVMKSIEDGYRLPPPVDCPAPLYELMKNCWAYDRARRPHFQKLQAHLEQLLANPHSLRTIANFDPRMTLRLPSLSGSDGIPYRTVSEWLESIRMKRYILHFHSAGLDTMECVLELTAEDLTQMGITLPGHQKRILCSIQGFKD

T3: MST1(h) (human, UniProt Q13043 1-487)
T3 sequence (looked up): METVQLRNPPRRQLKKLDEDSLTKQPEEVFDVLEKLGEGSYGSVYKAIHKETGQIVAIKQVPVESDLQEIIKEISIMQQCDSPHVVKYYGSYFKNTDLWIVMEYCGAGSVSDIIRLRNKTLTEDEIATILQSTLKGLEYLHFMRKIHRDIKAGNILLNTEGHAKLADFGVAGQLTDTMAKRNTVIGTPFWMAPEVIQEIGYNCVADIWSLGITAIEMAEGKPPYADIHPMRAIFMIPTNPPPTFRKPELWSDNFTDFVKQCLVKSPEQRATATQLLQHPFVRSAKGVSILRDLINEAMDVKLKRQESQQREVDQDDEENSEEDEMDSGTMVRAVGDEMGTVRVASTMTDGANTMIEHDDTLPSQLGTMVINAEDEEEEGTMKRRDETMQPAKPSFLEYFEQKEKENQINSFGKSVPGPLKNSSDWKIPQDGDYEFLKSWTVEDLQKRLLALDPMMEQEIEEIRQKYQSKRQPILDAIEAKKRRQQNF

T4: DRAK1(h) (human, UniProt Q9UEE5 1-414, limits assumed)
T4 sequence (looked up): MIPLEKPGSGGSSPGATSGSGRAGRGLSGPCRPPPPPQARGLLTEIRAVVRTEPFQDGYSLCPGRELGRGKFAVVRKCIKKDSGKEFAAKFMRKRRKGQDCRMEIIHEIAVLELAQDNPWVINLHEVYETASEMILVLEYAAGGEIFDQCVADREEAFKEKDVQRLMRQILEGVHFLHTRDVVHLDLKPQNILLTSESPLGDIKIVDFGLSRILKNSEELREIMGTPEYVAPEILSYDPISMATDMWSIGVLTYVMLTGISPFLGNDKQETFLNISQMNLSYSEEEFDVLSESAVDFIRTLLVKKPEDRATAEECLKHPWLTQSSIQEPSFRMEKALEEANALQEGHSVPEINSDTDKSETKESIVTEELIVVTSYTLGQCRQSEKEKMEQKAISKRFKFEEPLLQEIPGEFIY


Experiments:
Test in all cases: cell-based or functional assay
PDGFRβ(h) = PDGFRβ(h) (human, UniProt P09619 557-1106, limits assumed)
Abl(h) = Abl(h) (human, UniProt P00519 27-1130, limits assumed)
MAPKAP-K2(h) = MAPKAP-K2(h) (human, UniProt P49137 46-400)
STK33(h) = STK33(h) (human, UniProt Q9BYT3 1-514, limits assumed)
Met(Y1248H)(h) = Met(Y1248H)(h) (human, UniProt P08581-2 974-1408, limits assumed)
IRR(h) = IRR(h) (human, UniProt P14616 960-1297, limits assumed)
CHK2(I157T)(h) = CHK2(I157T)(h) (human, UniProt O96017 5-543, limits assumed)
PASK(h) = PASK(h) (human, UniProt Q96RG2 879-1323, limits assumed)
SAPK2a(h) = SAPK2a(h) (human, UniProt Q16539 1-360)
Ret(V804M)(h) = molecular target: T1, Ret(V804M)(h)
EphA1(h) = molecular target: T2, EphA1(h)
MST1(h) = molecular target: T3, MST1(h)
DRAK1(h) = molecular target: T4, DRAK1(h)
Ros(h) = Ros(h) (human, UniProt P08922 1883-2347, limits assumed)
Chain of Ros(h) (P08922 1883-2347 limits assumed): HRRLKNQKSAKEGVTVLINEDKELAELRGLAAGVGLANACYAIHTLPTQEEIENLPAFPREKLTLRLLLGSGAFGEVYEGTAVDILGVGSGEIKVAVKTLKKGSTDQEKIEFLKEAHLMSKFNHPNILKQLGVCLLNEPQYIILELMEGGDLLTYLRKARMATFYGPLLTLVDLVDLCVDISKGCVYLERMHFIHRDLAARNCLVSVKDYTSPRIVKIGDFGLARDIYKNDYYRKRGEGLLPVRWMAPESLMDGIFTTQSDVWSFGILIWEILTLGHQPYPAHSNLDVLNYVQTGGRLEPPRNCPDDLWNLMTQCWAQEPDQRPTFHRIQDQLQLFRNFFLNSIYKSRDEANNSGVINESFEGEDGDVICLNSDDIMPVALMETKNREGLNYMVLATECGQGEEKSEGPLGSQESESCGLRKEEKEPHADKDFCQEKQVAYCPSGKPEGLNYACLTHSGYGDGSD

Chain of CHK2(I157T)(h) (O96017 5-543 I157T limits assumed): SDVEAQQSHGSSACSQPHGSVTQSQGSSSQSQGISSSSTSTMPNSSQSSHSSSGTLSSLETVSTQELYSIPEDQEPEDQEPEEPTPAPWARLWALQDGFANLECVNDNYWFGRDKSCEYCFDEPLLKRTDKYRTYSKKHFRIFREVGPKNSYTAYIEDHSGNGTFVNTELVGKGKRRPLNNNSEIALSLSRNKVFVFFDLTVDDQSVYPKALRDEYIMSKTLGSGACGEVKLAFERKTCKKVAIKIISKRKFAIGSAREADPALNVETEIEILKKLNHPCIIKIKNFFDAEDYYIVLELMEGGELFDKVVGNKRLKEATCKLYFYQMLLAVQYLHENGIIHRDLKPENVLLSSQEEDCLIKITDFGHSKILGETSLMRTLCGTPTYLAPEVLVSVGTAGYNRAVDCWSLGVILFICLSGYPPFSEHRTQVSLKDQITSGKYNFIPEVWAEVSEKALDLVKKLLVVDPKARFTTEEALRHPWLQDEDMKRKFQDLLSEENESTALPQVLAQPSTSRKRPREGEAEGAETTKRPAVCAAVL
Chain of Abl(h) (P00519 27-1130 limits assumed): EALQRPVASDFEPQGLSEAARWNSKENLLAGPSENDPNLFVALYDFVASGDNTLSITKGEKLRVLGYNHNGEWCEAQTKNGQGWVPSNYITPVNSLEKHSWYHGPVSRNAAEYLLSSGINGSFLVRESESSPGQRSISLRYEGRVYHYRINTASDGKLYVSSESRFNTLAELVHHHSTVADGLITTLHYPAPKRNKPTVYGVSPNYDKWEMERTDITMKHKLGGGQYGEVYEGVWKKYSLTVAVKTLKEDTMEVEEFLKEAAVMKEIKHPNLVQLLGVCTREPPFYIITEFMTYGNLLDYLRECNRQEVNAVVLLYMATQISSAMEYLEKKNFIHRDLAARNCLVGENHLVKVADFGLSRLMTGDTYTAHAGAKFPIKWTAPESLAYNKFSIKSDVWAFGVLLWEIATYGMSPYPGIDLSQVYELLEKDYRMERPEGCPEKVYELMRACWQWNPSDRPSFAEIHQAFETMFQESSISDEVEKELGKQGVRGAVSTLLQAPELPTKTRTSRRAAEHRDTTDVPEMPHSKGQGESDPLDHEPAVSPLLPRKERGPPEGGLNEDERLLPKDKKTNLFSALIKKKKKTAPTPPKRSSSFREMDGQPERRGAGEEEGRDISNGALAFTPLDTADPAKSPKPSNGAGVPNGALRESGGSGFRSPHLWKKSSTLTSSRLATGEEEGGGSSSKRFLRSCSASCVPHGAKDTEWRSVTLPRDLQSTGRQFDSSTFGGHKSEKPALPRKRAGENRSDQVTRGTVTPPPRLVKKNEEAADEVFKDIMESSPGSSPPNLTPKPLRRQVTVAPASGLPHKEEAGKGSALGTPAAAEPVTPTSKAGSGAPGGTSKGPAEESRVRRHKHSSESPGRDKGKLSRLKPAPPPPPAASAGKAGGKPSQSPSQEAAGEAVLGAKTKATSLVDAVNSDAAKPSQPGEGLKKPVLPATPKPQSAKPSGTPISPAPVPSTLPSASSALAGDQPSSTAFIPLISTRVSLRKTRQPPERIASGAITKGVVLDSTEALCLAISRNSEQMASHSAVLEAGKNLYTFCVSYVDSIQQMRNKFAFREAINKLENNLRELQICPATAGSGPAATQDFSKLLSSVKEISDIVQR
Chain of PDGFRβ(h) (P09619 557-1106 limits assumed): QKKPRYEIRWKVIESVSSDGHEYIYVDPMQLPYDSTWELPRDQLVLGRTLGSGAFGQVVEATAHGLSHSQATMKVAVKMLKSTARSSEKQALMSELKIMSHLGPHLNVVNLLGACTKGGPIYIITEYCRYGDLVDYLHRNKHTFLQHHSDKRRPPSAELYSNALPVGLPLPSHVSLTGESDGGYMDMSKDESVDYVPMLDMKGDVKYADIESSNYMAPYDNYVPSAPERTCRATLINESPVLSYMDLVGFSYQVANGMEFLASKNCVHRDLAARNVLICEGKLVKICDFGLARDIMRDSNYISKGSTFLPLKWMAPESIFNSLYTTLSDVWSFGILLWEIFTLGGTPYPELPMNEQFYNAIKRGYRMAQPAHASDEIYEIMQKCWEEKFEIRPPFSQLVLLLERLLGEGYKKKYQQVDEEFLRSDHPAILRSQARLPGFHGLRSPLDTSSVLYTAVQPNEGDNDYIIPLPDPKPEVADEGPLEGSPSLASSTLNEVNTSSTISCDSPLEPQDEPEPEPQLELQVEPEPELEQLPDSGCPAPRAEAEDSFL
Chain of MAPKAP-K2(h) (P49137 46-400 limits assumed): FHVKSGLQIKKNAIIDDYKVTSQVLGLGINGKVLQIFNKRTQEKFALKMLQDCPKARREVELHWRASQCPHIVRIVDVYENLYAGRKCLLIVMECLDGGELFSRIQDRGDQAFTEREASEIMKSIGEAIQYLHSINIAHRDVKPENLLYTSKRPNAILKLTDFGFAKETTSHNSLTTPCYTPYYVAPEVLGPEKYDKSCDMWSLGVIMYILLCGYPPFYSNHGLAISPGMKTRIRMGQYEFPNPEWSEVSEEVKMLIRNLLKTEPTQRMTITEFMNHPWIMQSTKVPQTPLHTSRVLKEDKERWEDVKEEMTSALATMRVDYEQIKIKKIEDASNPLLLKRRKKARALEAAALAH
Chain of STK33(h) (Q9BYT3 whole entry): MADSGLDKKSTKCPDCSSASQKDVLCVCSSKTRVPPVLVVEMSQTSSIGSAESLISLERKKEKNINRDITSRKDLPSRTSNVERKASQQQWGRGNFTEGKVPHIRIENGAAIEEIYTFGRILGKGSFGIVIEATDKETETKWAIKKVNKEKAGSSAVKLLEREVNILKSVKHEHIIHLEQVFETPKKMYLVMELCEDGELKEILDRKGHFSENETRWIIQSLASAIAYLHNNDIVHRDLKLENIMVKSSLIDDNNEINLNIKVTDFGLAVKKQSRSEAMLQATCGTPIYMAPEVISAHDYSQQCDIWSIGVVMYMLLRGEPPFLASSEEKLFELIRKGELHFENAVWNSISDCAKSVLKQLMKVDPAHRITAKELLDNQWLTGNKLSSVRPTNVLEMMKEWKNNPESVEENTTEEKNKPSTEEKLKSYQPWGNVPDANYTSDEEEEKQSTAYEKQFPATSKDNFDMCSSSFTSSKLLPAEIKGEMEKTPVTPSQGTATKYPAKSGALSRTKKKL
Chain of IRR(h) (P14616 960-1297 limits assumed): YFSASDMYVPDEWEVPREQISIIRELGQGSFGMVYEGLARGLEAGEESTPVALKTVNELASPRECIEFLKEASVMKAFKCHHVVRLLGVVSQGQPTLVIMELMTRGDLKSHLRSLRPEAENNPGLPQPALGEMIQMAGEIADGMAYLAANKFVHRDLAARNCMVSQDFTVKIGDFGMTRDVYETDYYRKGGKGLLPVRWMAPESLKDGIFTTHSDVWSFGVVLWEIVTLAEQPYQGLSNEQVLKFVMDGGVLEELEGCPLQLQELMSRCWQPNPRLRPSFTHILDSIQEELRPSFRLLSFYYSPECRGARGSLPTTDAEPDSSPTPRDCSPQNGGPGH
Chain of PASK(h) (Q96RG2 879-1323 limits assumed): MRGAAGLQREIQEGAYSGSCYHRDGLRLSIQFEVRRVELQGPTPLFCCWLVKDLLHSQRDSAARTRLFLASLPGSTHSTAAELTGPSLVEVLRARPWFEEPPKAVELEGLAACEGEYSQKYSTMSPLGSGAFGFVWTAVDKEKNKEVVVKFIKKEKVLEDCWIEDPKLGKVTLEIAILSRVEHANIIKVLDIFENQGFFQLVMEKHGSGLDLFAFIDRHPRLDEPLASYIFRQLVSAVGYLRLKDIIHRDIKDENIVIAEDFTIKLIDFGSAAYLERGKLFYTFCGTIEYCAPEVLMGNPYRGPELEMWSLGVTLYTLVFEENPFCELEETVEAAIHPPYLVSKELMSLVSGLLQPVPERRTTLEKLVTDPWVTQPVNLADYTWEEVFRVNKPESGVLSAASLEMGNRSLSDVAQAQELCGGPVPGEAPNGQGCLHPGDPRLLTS
Chain of SAPK2a(h) (Q16539 whole entry): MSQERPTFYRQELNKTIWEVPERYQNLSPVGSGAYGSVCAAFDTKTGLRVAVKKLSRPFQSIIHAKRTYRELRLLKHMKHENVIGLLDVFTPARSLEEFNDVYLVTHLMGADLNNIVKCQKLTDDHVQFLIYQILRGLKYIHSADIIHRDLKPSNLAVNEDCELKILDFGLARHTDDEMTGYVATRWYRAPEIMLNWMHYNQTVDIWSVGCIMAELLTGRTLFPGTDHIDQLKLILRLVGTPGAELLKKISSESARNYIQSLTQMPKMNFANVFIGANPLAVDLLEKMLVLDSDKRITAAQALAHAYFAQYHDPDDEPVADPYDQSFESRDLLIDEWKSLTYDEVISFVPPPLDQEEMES

Binder	% activity, 100 µM (PDGFRβ(h))	% activity, 100 µM (Abl(h))	% activity, 100 µM (MAPKAP-K2(h))	% activity, 100 µM (STK33(h))	% activity, 100 µM (Met(Y1248H)(h))	% activity, 100 µM (IRR(h))	% activity, 100 µM (CHK2(I157T)(h))	% activity, 100 µM (PASK(h))	% activity, 100 µM (SAPK2a(h))	% activity, 100 µM (Ret(V804M)(h))	% activity, 100 µM (EphA1(h))	% activity, 100 µM (MST1(h))	% activity, 100 µM (DRAK1(h))	% activity, 100 µM (Ros(h))
FAKLAARLYRKALARQLGVAA [MMI-0300]	81%	69%	5%	45%	117%	8%	43%	29%	90%	95%	73%	14%	14%	95%
KAFAKLAARLYRKALARQLGVAA [MMI-0400]	53%	84%	5%	52%	63%	8%	41%	28%	85%	87%	61%	6%	14%	99%
